Laboratory results as given in the supplement of paper PMC10126150.
± gives the standard deviation of the averaged measurements.
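Further: ATP exposure 15 min at 22 °C before imaging.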

What follows are sequences tested on ATP (assay: switch fluorescence ratio, 500 uM ATP over buffer (Cy3 cluster intensity, sum of 5 cycles each) (fold (ratio)); higher = stronger signal-on switching upon ATP binding; sequences stand for … in TCGTCGGCAGCGTCAGATGTGTATAAGAGACAGTTTTTTTTTTTTTTTTTTTTTTTTT…TC). Conditions: aptamer strand: ATP DNA aptamer (quencher-CACCTGGGGGAGTATTGCGGAGGAAGG + anchor), 100 nM annealed; ATP concentration: 500 uM.
How it was run: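 Five buffer/ATP imaging cycles were run on Cy3-labelled switching-strand clusters on a modified Illumina MiSeq flow-cell, with NaOH stripping and re-annealing between cycles. In each cycle, clusters annealed to 100 nM quencher-labelled ATP aptamer were imaged in selection buffer, then after 15 min with 500 uM ATP at 22 °C. Per cluster, the fluorescence ratio is summed target-cycle over summed buffer-cycle Cy3 intensity, averaged per switch-domain sequence. Only clusters within 100-1000 RFU were kept.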
ATGAGTCATC was tested, and the switch fluorescence ratio was 0.981 ± 0.034.
ATGAGTGTGT gave a switch fluorescence ratio of 0.984 ± 0.015.
In the case of ATGATAAATT, the switch fluorescence ratio is reported as 0.963 ± 0.04.
With ATGATAGTGA the switch fluorescence ratio was 0.991 ± 0.012.
ATGATATTGA gave a switch fluorescence ratio of 0.99 ± 0.011.
ATGATATTTC gave a switch fluorescence ratio of 0.961 ± 0.021.
ATGATCTGAG showed a switch fluorescence ratio of 1.028 ± 0.005.
ATGATCTGCT was tested, and the switch fluorescence ratio was 0.946 ± 0.03.
For ATGATGAGGT, the switch fluorescence ratio was 1 ± 0.017.
Work on ATGATGATGG yielded a switch fluorescence ratio of 0.9858 ± 0.0096.
With ATGATGGATT the switch fluorescence ratio was 1.008 ± 0.0031.
For ATGATGGG, the switch fluorescence ratio was 1.01 ± 0.017.
Work on ATGATGGGCT yielded a switch fluorescence ratio of 0.9654 ± 0.0059.
For ATGATGGTTT, the switch fluorescence ratio was 1.02 ± 0.032.
Work on ATGATGTTTG yielded a switch fluorescence ratio of 0.981 ± 0.039.
Work on ATGATTAACT yielded a switch fluorescence ratio of 0.986 ± 0.036.
ATGATTACGC showed a switch fluorescence ratio of 1.06 ± 0.015.
Sequence ATGATTAGCT has a switch fluorescence ratio of 1.0032 ± 0.00021.
In the case of ATGATTGGCC, the switch fluorescence ratio is reported as 0.9882 ± 0.0086.
Work on ATGATTTTGT yielded a switch fluorescence ratio of 1.013 ± 0.01.
For ATGCAAAGGA, the switch fluorescence ratio was 1 ± 0.043.
ATGCAATGCT showed a switch fluorescence ratio of 3.19 ± 0.18.
For ATGCAATGGC, the switch fluorescence ratio was 1.437 ± 0.012.
In the case of ATGCAGAAAT, the switch fluorescence ratio is reported as 1.41 ± 0.83.
Sequence ATGCAGCATG has a switch fluorescence ratio of 1.021 ± 0.0038.
ATGCAGGCGG was tested, and the switch fluorescence ratio was 0.9811 ± 0.001.
In the case of ATGCAGGTGT, the switch fluorescence ratio is reported as 1.23 ± 0.014.
For ATGCATTACT, the switch fluorescence ratio was 1.61 ± 0.11.
In the case of ATGCATTTTG, the switch fluorescence ratio is reported as 0.97 ± 0.03.
In the case of ATGCCCGTG, the switch fluorescence ratio is reported as 0.985 ± 0.014.
For ATGCCCTTCG, the switch fluorescence ratio was 1.04 ± 0.013.
With ATGCCGAAGG the switch fluorescence ratio was 0.985 ± 0.054.
For ATGCCGGGGT, the switch fluorescence ratio was 1.05 ± 0.013.
ATGCCGGGTG gave a switch fluorescence ratio of 1.07 ± 0.047.
ATGCCGGTAT gave a switch fluorescence ratio of 0.999 ± 0.053.
With ATGCCGTGGC the switch fluorescence ratio was 1.02 ± 0.033.
Sequence ATGCCTAGTG has a switch fluorescence ratio of 0.994 ± 0.013.
ATGCCTGGGT was tested, and the switch fluorescence ratio was 0.999 ± 0.034.
With ATGCGAATCG the switch fluorescence ratio was 0.99 ± 0.038.
Work on ATGCGCAGGG yielded a switch fluorescence ratio of 1.04 ± 0.051.
In the case of ATGCGGGCCA, the switch fluorescence ratio is reported as 1.012 ± 0.0061.
ATGCGGTATG was tested, and the switch fluorescence ratio was 1 ± 0.0024.
ATGCGTACTT gave a switch fluorescence ratio of 1.01 ± 0.02.
Work on ATGCGTGGGG yielded a switch fluorescence ratio of 1.02 ± 0.029.
Sequence ATGCTAGGGT has a switch fluorescence ratio of 0.9905 ± 0.0055.
With ATGCTATAGT the switch fluorescence ratio was 1.021 ± 0.0025.
Work on ATGCTCGGGG yielded a switch fluorescence ratio of 1 ± 0.015.
ATGCTGGGTT was tested, and the switch fluorescence ratio was 0.993 ± 0.048.
Sequence ATGCTTATAC has a switch fluorescence ratio of 2.31 ± 0.36.
Work on ATGCTTTGGG yielded a switch fluorescence ratio of 1.036 ± 0.0061.
In the case of ATGGAAATTG, the switch fluorescence ratio is reported as 0.954 ± 0.019.
ATGGAACGGT showed a switch fluorescence ratio of 1.003 ± 0.0053.
Sequence ATGGAAGGGC has a switch fluorescence ratio of 1.01 ± 0.011.
In the case of ATGGAAGTTT, the switch fluorescence ratio is reported as 1.01 ± 0.022.
In the case of ATGGAATCAG, the switch fluorescence ratio is reported as 1.015 ± 0.01.
ATGGACAATA showed a switch fluorescence ratio of 1.07 ± 0.026.
Work on ATGGACGGTA yielded a switch fluorescence ratio of 1.105 ± 0.0076.
ATGGACGTTT showed a switch fluorescence ratio of 0.967 ± 0.048.
In the case of ATGGACTCAA, the switch fluorescence ratio is reported as 1.051 ± 0.0073.
ATGGAGAACT was tested, and the switch fluorescence ratio was 0.976 ± 0.024.
Sequence ATGGAGAGAA has a switch fluorescence ratio of 1.01 ± 0.039.
In the case of ATGGAGCGTG, the switch fluorescence ratio is reported as 0.994 ± 0.018.
Work on ATGGAGGGGA yielded a switch fluorescence ratio of 1 ± 0.021.
With ATGGAGTTTG the switch fluorescence ratio was 0.9901 ± 0.0057.
ATGGATGGTG was tested, and the switch fluorescence ratio was 0.96 ± 0.029.
ATGGATTGGC was tested, and the switch fluorescence ratio was 1.08 ± 0.035.
With ATGGATTGGT the switch fluorescence ratio was 0.984 ± 0.012.
With ATGGATTTAG the switch fluorescence ratio was 1.014 ± 0.008.
In the case of ATGGCAAAAG, the switch fluorescence ratio is reported as 1.01 ± 0.045.
ATGGCAACAT gave a switch fluorescence ratio of 1.01 ± 0.041.
ATGGCAATGT showed a switch fluorescence ratio of 1.08 ± 0.013.
With ATGGCACTGG the switch fluorescence ratio was 1.07 ± 0.013.
ATGGCAGGCG was tested, and the switch fluorescence ratio was 0.995 ± 0.04.
For ATGGCATCGG, the switch fluorescence ratio was 1.005 ± 0.0035.
Sequence ATGGCATGCT has a switch fluorescence ratio of 1.02 ± 0.021.
For ATGGCCCGGC, the switch fluorescence ratio was 1.03 ± 0.017.
